Assay results as given in patent US20250277039A1 (PURDUE RESEARCH FOUNDATION, published 2025).
Values belong to the binder of their own block, whether it stands above or below them.

What was measured:
[1] = target: T1, His-tagged mouse PD-L1 protein (mouse, UniProt Q9EP73 19-238, limits assumed); assay: plate assay: His-tagged PD-L1 on Ni-NTA 96-well plate, PD-1-hFc, HRP anti-human IgG Fc secondary, OD450 given as fold ratio
T1 construct: also called mPD-L1-His; mPD-L1; not shown: His tag
Procedure: (§1) Histidine (His)-tagged canine or mPD-L1 protein was immobilized on the nickel-nitriloacetic acid (Ni-NTA) 96-well plate and horseradish peroxidase (HRP)-conjugated anti-human IgG Fc-specific secondary with mPD-1-hFc or cPD-1-hFc protein was added. OD450 was measured to quantify the amount of bound PD-1 protein.

[2] = target: T1, His-tagged mouse PD-L1 protein; assay: blocking plate assay: mPD-L1-His on Ni-NTA plate, cPD-1-hFc or mPD-1-hFc, HRP anti-human IgG Fc secondary; 12C concentration not given
Procedure: as §1

[3] = target: T2, His-tagged canine PD-L1 protein (6X His tagged extracellular domain of cPD-L1) (canine, UniProt E2RKZ5 19-236); assay: cell-free ELISA-based binding assay on His-tagged extracellular domain of cPD-L1, bound antibody as OD450
T2 construct: it is treated here as the same construct; also called cPD-L1-His; canine PD-L1-His
T2 sequence: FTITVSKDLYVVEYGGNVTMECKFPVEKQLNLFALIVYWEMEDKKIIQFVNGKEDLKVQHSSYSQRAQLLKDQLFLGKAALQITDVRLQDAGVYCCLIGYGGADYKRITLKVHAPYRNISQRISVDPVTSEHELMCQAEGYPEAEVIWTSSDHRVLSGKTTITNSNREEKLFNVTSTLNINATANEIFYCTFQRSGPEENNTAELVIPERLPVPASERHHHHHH

[4] = target: T3, canine PD-L1 (Flag-cPD-L1) expressed on BT549 cells (canine, UniProt E2RKZ5 19-289); assay: cPD-1/cPD-L1 blockade assay on BT549^cPD-L1 cells; blocked ligand cPD-1-hFc; green fluorescence by IncuCyte S3
T3 construct: Flag-tagged (pGIPZ-shPD-L1/Flag-cPD-L1); Endogenous human PD-L1 was knocked down in the BT549 cells; also called membrane-localized cPD-L1 protein; BT549^cPD-L1 cells
T3 sequence: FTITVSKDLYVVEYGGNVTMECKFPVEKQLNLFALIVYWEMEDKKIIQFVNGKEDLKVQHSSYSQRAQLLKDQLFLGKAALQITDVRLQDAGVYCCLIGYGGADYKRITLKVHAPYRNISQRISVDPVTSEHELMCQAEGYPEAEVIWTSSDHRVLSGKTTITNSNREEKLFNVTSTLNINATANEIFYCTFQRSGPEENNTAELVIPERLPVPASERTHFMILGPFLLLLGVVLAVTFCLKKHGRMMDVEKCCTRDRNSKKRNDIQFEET
Procedure: (§2) To measure PD-1 protein on the cells. […] cells were seeded per well in 96-well plates. The plates were then incubated with cIgG control (Rockland Immunochemicals. Pottstown, PA). 12C10E4 antibody or cPD-L1 A12C10E4 antibody, cPD-1-hFc protein (human Fc protein conjugated: Sino Biological US. Wayne. PA), and/or anti-human Alexa Fluor 488 dye conjugate (ThermoFisher Scientific. Waltham. MA). Every 3 hours green fluorescent signal was measured and quantified by IncuCyte S3 (Sartorius. Goettingen. Germany) (FIG. 5B). The image analysis was performed according to the manufacturer's protocol.

[5] = target: T2, His-tagged canine PD-L1 protein (6X His …); assay: Octet BLI (RED384): His-tagged cPD-L1 loaded on an NTA biosensor at 200 nM, antibody at 50, 100, 200 nmol/L
Procedure: The binding affinity (KD) of the chimeric cPD-L1/cPD-L1 antibody (12C10E4) for canine PD-L1 was determined by Octet Biolayer interferometry (BLI) using the Octet RED384 system (Sartorius. Bohemia. NY). Briefly. His-tagged cPD-L1 protein was loaded on the Octet NTA biosensor at a concentration of 200 nM. The association step was performed by submerging the sensors in three concentrations of the chimeric cPD-L1/cPD-L1 antibody (12C10E4) (50, 100, 200 nmol/L) in the kinetic buffer. Dissociation was performed and monitored in fresh kinetic buffer. Data were analyzed with Octet Analysis HT software (Sartorius. Bohemia. NY), […].

[6] = target: T4, cPD-L1 on MB49^cPD-L1 cells; assay: flow cytometry of MB49^cPD-L1 cells
T4 construct: also called canine PD-L1 (Flag-cPD-L1) on mouse PD-L1 knockout MB49 cells
T4 chain: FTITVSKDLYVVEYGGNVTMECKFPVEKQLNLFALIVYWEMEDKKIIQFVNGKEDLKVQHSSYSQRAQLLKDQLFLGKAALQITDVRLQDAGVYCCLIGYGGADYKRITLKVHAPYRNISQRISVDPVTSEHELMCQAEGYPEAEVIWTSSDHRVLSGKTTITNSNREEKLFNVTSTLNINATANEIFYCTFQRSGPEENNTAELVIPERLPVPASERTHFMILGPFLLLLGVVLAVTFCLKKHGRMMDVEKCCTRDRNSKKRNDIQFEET
Procedure: (§3) For flow cytometry analysis, MB49 or BT549 cells were washed twice with ice-cold cell staining buffer (Biolegend, San Diego, CA) and stained with cIgG control, or cPD-L1 12C10E4 cIgG or cPD-L1 A12C10E4 cIgG for 1 hour at 4° C. After three washes with staining buffer, cell samples were stained with Alexa Fluor 488-conjugated anti-canine IgG specific secondary antibody for 30 minutes at 4° C. Cell samples were loaded on BD LSRFortessa (BD, Franklin Lakes, NJ) for analysis. Data analysis was performed on FlowJo v9 software (BD). Every hour, green fluorescent signal was measured and quantified by IncuCyte S3 (Sartorius. Goettingen, Germany). The Image analysis was performed according to the manufacturer's protocol.

[7] = target: T1, His-tagged mouse PD-L1 protein; assay: plate assay: His-tagged PD-L1 on Ni-NTA 96-well plate, antibody, HRP anti-canine IgG secondary, OD450
Procedure: 12C and 3C. with human PD-L1 (hPD-L1), mPD-L1, and cPD-L1 proteins. His-tagged human PD-L1, mPD-L1, or cPD-L1 protein was immobilized on the Ni-NTA 96-well plate, and anti-cPD-L1 Abs. 12C or 3C. with HRP-conjugated anti-canine IgG-specific secondary was added. OD450 was measured to quantify the amount of bound PD-L1 antibodies (Ab=antibody).

[8] = target: T2, His-tagged canine PD-L1 protein (6X His …); assay: cell-free blockade assay: canine PD-L1-His on Ni-NTA plate; blocked ligand PD-1-Fc (cPD-1-hFc), HRP anti-human IgG Fc secondary, OD450
Procedure: For the […] assays. Pierce Ni-NTA coated 96-well plates (ThermoFisher Scientific. Waltham. MA) were coated with canine PD-L1-His proteins and PD-1-Fc proteins (human Fc-protein conjugated) (SinoBiological US. Wayne. PA), and anti-human IgG Fc specific horseradish peroxidase (HRP)-conjugated secondary antibodies (SouthernBiotech. Birmingham. AL) were added, followed by the addition of anti-canine PD-L1, 12C10E4 or cPD-L1 A12C10E4 antibodies. The bound PD-1-Fc protein was quantified by measuring OD450 value with a Synergy LX multi-mode reader.

[9] = target: T3, canine PD-L1 (Flag-cPD-L1) expressed on …; assay: blockade of cPD-1-hFc binding to cPD-L1, bound cPD-1 quantified by green fluorescence on IncuCyte S3 (FIG. 5E)
Procedure: as §2

[10] = target: T5, mPD-L1 on MB49 cells (Mus musculus, UniProt Q9EP73); assay: flow cytometry of MB49 parental cells, which stain for mPD-L1 in the left panel
T5 construct: endogenous, membrane-located, on MB49 parental mouse bladder cancer cells; also called endogenous mouse PD-L1 on MB49 parental cells
Procedure: as §3

T1 sequence (Q9EP73 19-238 limits assumed): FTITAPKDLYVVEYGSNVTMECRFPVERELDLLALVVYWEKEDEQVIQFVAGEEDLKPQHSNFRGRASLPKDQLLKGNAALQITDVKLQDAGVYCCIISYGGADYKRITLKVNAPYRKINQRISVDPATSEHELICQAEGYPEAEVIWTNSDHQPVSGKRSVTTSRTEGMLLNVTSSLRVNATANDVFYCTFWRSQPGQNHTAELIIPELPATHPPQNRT
T5 sequence (Q9EP73 19-290 limits assumed): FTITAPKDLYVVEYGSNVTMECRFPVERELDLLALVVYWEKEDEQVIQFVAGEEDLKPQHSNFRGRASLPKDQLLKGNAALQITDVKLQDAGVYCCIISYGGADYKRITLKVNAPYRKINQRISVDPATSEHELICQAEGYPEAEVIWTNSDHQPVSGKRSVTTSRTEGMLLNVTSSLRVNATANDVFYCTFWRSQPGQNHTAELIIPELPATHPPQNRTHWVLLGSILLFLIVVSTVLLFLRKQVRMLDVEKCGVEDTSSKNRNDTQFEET

binding result [1]: binds
B1: mPD-1-hFc protein (Fc fusion, mouse, UniProt Q02242 25-167, looked up)
chain: LEVPNGPWRSLTFYPAWLTVSEGANATFTCSLSNWSEDLMLNWNRLSPSNQTEKQAAFCNGLSQPVQDARFQIIQLPNRHDFHMNILDTRRNDSGIYLCGAISLHPKAKIEESPGAELVVTERILETSTRYPSPSPKPEGRFQ
notes: also called mouse PD-1; not shown: human Fc

binding result [2]: no binding
B2: murine monoclonal antibody cPD-L1 12C10E4 from the hybridoma (antibody, mouse IgG1, V domains shown)
VH: QVQLKQSGPGLVQPSQSLSITCTISGFSLTSFGVHWVRQSPGKGLEWLGVIWSGGSTDYNAAFTSRLSINKDNSKSQVFFKMNSLQADDTAIYYCARGGGPDWYFDVWGTGTTVTVSS
VL: DIVLTQSPASLAVSLGQRATISCRASESVEYYGTSLMQWYQQKPGQPPKLLIFAASNVKSGVPARFSGSGSGTDFSLNIHPVEEDDIAMYFCQQSGKVPHTFGGGTKLEIK
notes: Hybridoma antibody from A/J mice immunized with the cPD-L1 extracellular domain-human Fc; also called mAb 12C; murine 12C antibody

EC50 (read off the curve) [3]: ~0.2 µg/mL
IC50 (read off the curve) [4]: ~0.06 µg/mL
Kd [5]: 8.6 nM
binding result [6]: binds
binding result [7]: no binding
IC50 (read off the curve) [8]: ~0.05 µg/mL
EC50 [9]: 0.419 µg/mL
binding result [10]: no binding
B3: cPD-L1 12C10E4 chimeric antibody (mouse variable domains, canine IgG2 / canine kappa constant domains) (antibody)
heavy: QVQLKQSGPGLVQPSQSLSITCTISGFSLTSFGVHWVRQSPGKGLEWLGVIWSGGSTDYNAAFTSRLSINKDNSKSQVFFKMNSLQADDTAIYYCARGGGPDWYFDVWGTGTTVTVSSASTTAPSVFPLAPSCGSTSGSTVALACLVSGYFPEPVTVSWNSGSLTSGVHTFPSVLQSSGLYSLSSMVTVPSSRWPSETFTCNVAHPASKTKVDKPVPKRENGRVPRPPDCPKCPAPEMLGGPSVFIFPPKPKDTLLIARTPEVTCVVVDLDPEDPEVQISWFVDGKQMQTAKTQPREEQFNGTYRVVSVLPIGHQDWLKGKQFTCKVNNKALPSPIERTISKARGQAHQPSVYVLPPSREELSKNTVSLTCLIKDFFPPDIDVEWQSNGQQEPESKYRTTPPQLDEDGSYFLYSKLSVDKSRWQRGDTFICAVMHEALHNHYTQKSLSHSPGK
light: DIVLTQSPASLAVSLGQRATISCRASESVEYYGTSLMQWYQQKPGQPPKLLIFAASNVKSGVPARFSGSGSGTDFSLNIHPVEEDDIAMYFCQQSGKVPHTFGGGTKLEIKRSMEIKRTDAQPAVYLFQPSPDQLHTGSASVVCLLNSFYPKDINVKWKVDGVIQDTGIQESVTEQDKDSTYSLSSTLTMSSTEYLSHELYSCEITHKSLPSTLIKSFQRSECQRVD
notes: Expressed in ExpiCHO-S cells from pTRIOZ-cIgG2-12C10E4; also called 12C chimeric antibody; mAb 12C

EC50 (read off the curve) [3]: ~0.2 µg/mL
IC50 (read off the curve) [8]: ~0.05 µg/mL
B4: cPD-L1 A12C10E4 chimeric antibody (antibody)
heavy: QVQLKQSGPGLVQPSQSLSITCTISGFSLTSFGVHWVRQSPGKGLEWLGVIWSGGSTDYNAAFTSRLSINKDNSKSQVFFKMNSLQADDTAIYYCARGGGPDWYFDVWGTGTTVTVSSASTTAPSVFPLAPSCGSTSGSTVALACLVSGYFPEPVTVSWNSGSLTSGVHTFPSVLQSSGLYSLSSMVTVPSSRWPSETFTCNVAHPASKTKVDKPVPKRENGRVPRPPDCPKCPAPEMLGGPSVFIFPPKPKDTLLIARTPEVTCVVVDLDPEDPEVQISWFVDGKQMQTAKTQPREEQFNGTYRVVSVLPIGHQDWLKGKQFTCKVNNKALPSPIERTISKARGQAHQPSVYVLPPSREELSKNTVSLTCLIKDFFPPDIDVEWQSNGQQEPESKYRTTPPQLDEDGSYFLYSKLSVDKSRWQRGDTFICAVMHEALHNHYTQKSLSHSPGK
light: DIVLTQSPASLAVSLGQRATISCRASESVEYYGTSLMQWYQQKPGQPPKLLIFAASNVKSGVPARFSGSGSGTDFSLNIHPVEEDDIAMYFCQQSGKVPHTFGGGTKLEIKRSMADAQPAVYLFQPSPDQLHTGSASVVCLLNSFYPKDINVKWKVDGVIQDTGIQESVTEQDKDSTYSLSSTLTMSSTEYLSHELYSCEITHKSLPSTLIKSFQRSECQRVD
notes: also called mAb A12C; cPD-L1 A12C10E4 cIgG

binding result [7]: no binding
B5: cPD-L1 3C chimeric antibody clone (3C8D3 variable domains, canine constant domains) (antibody, V domains shown)
VH: EVQLQQSGPELVKPGASVKMSCKASGYTFTDYVLHWVRQTNGKSLEWIGEINPSNGDTYYNQKFKGKATLTVDTSSSTAYMQLTTLTSEDSAVYYCARSDYSNYVGFAYWGQGTLVTVSA
VL: DIVMTQSHKFMSTSVGDRVSITCKVSQDVGTAVAWYQQKPGQCPKRLIYWTSTRHTGVPDRFTGSGSGTDFTLTISNVQSEDLVDYFCQQYSSYPLTFGGGTKLELKR
notes: also called cPD-L1 3C8D3
